These results are taken from the supplement of paper PMC9942255.

The subject of this series is Bacillus subtilis DB104 (SP-AmyQ fusion secretion). As to the kind of experiment: AmyQ secretion efficiency, weighted average sort bin (1 = best secretion, 10 = worst) (bin number (weighted average, 1-10)); higher = lower secretion efficiency. An outline of the steps:
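Secretion score gives the read-frequency-weighted average bin number, normalised to beads per bin, with low-abundance sequences left out. A B. subtilis DB104 library expressing mature AmyQ fused to designed signal peptides, integrated at amyE, was encapsulated with fluorescein-starch at about 0.3 cells per ~65 nL alginate bead. Beads were grown about 13 h at room temperature, stained with nile red, and the occupied ones were sorted by large-particle flow cytometry into 10 equally populated bins by green/red fluorescence ratio before the amplicons from each bin were Illumina-sequenced.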

With MKKRKRRNFKRFIAAFLVLALMISLVPADTLAKST, the AmyQ secretion efficiency turned out to be 1.68.

As to MKLSVKIRKVLTVAAAAMTAKMYATAKGN, the AmyQ secretion efficiency was found to be 6.94.

Sequence MKKAAAVLLSLGLVFGFSYGAGHVWEAKTK came in with an AmyQ secretion efficiency of 5.37.

On to MLTKRGRYYYRTLLGLIAWFPGAAQAEEK, for which the AmyQ secretion efficiency was determined as 9.36.

For the sequence MKKRLIGFLVLVPALIMSGITLIEANDD, the AmyQ secretion efficiency was found to be 4.89.

On to MKLKSKLLLSCLALSTVFVATTICNAPTH, for which the AmyQ secretion efficiency stood at 5.85.

Take MRMLWRSLALCGLALTLAPCCQAAEP: the AmyQ secretion efficiency came out at 1.93.

MLKNRILALFVLSLGLLSFMVTPVSAASK registered an AmyQ secretion efficiency of 1.67.

Turning to MRKWYFILLAGVLTSVILAFVYDKGKANEE, the AmyQ secretion efficiency turned out to be 2.67.

The sequence MKSCKQLIVCSLAAILLLIPSVSFAKRK returned an AmyQ secretion efficiency of 2.42.

The sequence MTKKGWQLPLVCVLLISGWLAPAASASAQTT came in with an AmyQ secretion efficiency of 1.79.

In the case of MVKKWLRRRRVMLSVLSTFTYSASAVGV, the AmyQ secretion efficiency stood at 6.88.

The sequence MTMLRKIIGWILLLCIIPLFAFTVIASGAPV came in with an AmyQ secretion efficiency of 6.61.

Sequence MKKCLLFLTTIALILSLSTNAFAANE gave an AmyQ secretion efficiency of 1.03.

MKKGIIRTGRQSFVLFFALSTGITGVQAAPA: the AmyQ secretion efficiency amounted to 5.13.

In turn, MKKWMITIAMLKKKRRRLFVFISPLKSHKT showed an AmyQ secretion efficiency of 7.47.

Sequence MRMLWRSLALCGLALTLAPCAQAATP registered an AmyQ secretion efficiency of 2.06.

The sequence MRKSLITLGLASVIGTSSFLIPFTSKTHSAETL registered an AmyQ secretion efficiency of 6.74.

For MLKKKWMVGLLAGCLAAGGFSYNMFATEN, the AmyQ secretion efficiency came to 6.41.

Sequence MRSYIKVLTMCFLGLILFVPTALAAND yielded an AmyQ secretion efficiency of 2.11.

Sequence MKRIRIPMTLKRKRKRTIAPLSFASAEEN registered an AmyQ secretion efficiency of 8.12.

In turn, MKLWMRKTLVVLFTIVTFGLVSPPAAVMADKP returned an AmyQ secretion efficiency of 2.79.

MKRITINIITMFIAAAVIFLVVFTSSGTAEAAEK: the AmyQ secretion efficiency is 2.77.

In turn, MRMLWRSLALCGLALTLAPCAQSAEP gave an AmyQ secretion efficiency of 2.34.

For MLKKKWMVGLLAGCLAAGGFSYNNFATEN, the AmyQ secretion efficiency stood at 6.75.

Sequence MKQGKFSVFLILLLMLTLVVAPKEKAEAASD yielded an AmyQ secretion efficiency of 1.02.

On to MNKLKRLSMLTVMIASVFIFSASFFTSHALAAQY, for which the AmyQ secretion efficiency was found to be 2.06.

Take MKRSISIFITCLLITLLTMGGMIASPASEAGT: the AmyQ secretion efficiency stood at 4.1.

On to MKRFSTAYLLLGILCSAAVFLIGAPSRALGADD, for which the AmyQ secretion efficiency is 3.2.

In turn, MRKTIFAFLTGLMMFGTITALSASPD had an AmyQ secretion efficiency of 5.45.

MKMKSGMEQAVSVLLLLSRLPVQASLRRK showed an AmyQ secretion efficiency of 7.08.

The sequence MRKKCSTCQWRLVLLLSCLSGKSAYAATS yielded an AmyQ secretion efficiency of 5.76.

MKSKGSIMACLILFSFTITTFINTETISTFSN returned an AmyQ secretion efficiency of 7.54.

Sequence MKKVLMAFIICLSLILSVLAAPPSGAKAASV displayed an AmyQ secretion efficiency of 1.88.

With MTKKAWFLPLVCVSGWLAPAASASAQTT, the AmyQ secretion efficiency was found to be 2.07.

MKWMCSICCAAVLLAGGAIQAEAV returned an AmyQ secretion efficiency of 2.58.

On to MMSRKILLSSALSLGMLVSAAPVLATSS, for which the AmyQ secretion efficiency amounted to 3.37.

The sequence MKSKWQRKRRSGLLLVAVGFSFTQVMVHAGET had an AmyQ secretion efficiency of 6.49.

As to MKSKWMSGLLLVAVGFSFTQVMFHAGET, the AmyQ secretion efficiency was 6.46.

Turning to MLKKVKRRRFILVGSTLGAFSFSSDASAKHV, the AmyQ secretion efficiency is 7.34.

The sequence MKWMCSTCCAAVLLAGGAAQAEAV had an AmyQ secretion efficiency of 2.63.

In the case of MSTNLLSSLAISALSLGLLVSAPTASFAAES, the AmyQ secretion efficiency is 3.94.

As for MKRFSTAYLLLGILCSAAVFLIGAPSRALNAEV, the AmyQ secretion efficiency was 5.97.

As to MKKRKCLLFLTTIALILSLSTNAFAKNT, the AmyQ secretion efficiency is 1.8.

On to MTKLKMLSMLRRKKASLFIFSSQALAVQY, for which the AmyQ secretion efficiency came out at 6.44.
